Experimental findings from the supplement of paper PMC9112550, “Optimization of the antimicrobial peptide Bac7 by deep mutational scanning” (BMC Biology, 2022) are described below.
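Further: peptides expressed intracellularly from a pBAD plasmid library in pooled LB shake-flask culture, induced with 0.3% L-arabinose, DNA abundance read by NGS, three biological replicates, DESeq2 with apeglm shrinkage.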

This data set has as its system Escherichia coli TOP10. The data set is described as follows: shrunken log2 fold change of peptide-encoding DNA abundance (4.5 h post-induction vs induction); higher = less antimicrobial activity (less host growth inhibition). Conditions: time post-induction: 4.5 h; library: site-saturation at positions 5, 18, 19, 20.
Turning to RRIRERPPRLPRPRPRPDGVPRP, the “shrunken log2 fold change” value was -0.162.
In the case of RRIRHRPPRLPRPRPRPIPLPRP, the “shrunken log2 fold change” value is -0.193.
RRIRLRPPRLPRPRPRPDWHPRP: the “shrunken log2 fold change” value is -0.264.
As for RRIRIRPPRLPRPRPRPLREPRP, the “shrunken log2 fold change” value amounted to 0.255.
For the sequence RRIRVRPPRLPRPRPRPTQAPRP, the “shrunken log2 fold change” value is 0.55.
For the sequence RRIRSRPPRLPRPRPRPHMPPRP, the “shrunken log2 fold change” value is -0.401.
The figure for RRIRWRPPRLPRPRPRPIDTPRP is 0.00736; for RRIRQRPPRLPRPRPRPWGKPRP it is -0.103.
For RRIRLRPPRLPRPRPRPMLYPRP, the “shrunken log2 fold change” value was -0.232.
Turning to RRIRWRPPRLPRPRPRPPEVPRP, the “shrunken log2 fold change” value was found to be 0.334.
As for RRIRIRPPRLPRPRPRPEKIPRP, the “shrunken log2 fold change” value is -0.0431.
For the sequence RRIRRRPPRLPRPRPRPKERPRP, the “shrunken log2 fold change” value is -0.327.
Under RRIRNRPPRLPRPRPRPLALPRP stands -0.239.
Turning to RRIRGRPPRLPRPRPRPTYCPRP, the “shrunken log2 fold change” value was found to be 0.309.
Turning to RRIRWRPPRLPRPRPRPADTPRP, the “shrunken log2 fold change” value came out at 0.0101.
Turning to RRIRQRPPRLPRPRPRPTHDPRP, the “shrunken log2 fold change” value is 0.911.
For RRIRARPPRLPRPRPRPLCSPRP, the “shrunken log2 fold change” value was 0.197.
RRIRLRPPRLPRPRPRPSYIPRP: the “shrunken log2 fold change” value was -0.427.
RRIRIRPPRLPRPRPRPKYIPRP: the “shrunken log2 fold change” value was -0.992.
The figure for RRIRYRPPRLPRPRPRPWHFPRP is -1.15; for RRIRHRPPRLPRPRPRPANEPRP it is 0.0508.
Consider RRIRCRPPRLPRPRPRPITCPRP, for which the “shrunken log2 fold change” value is -0.159.
For the sequence RRIRFRPPRLPRPRPRPSRQPRP, the “shrunken log2 fold change” value is -0.0117.
As to RRIRSRPPRLPRPRPRPLEGPRP, the “shrunken log2 fold change” value was -0.131.
The figure for RRIRDRPPRLPRPRPRPQGHPRP is -0.0748; for RRIRWRPPRLPRPRPRPCPLPRP it is -0.247; for RRIRARPPRLPRPRPRPRGTPRP it is 0.448.
In the case of RRIRGRPPRLPRPRPRPHDCPRP, the “shrunken log2 fold change” value worked out at 0.0253.
The figure for RRIRNRPPRLPRPRPRPFNKPRP is -0.72; for RRIRGRPPRLPRPRPRPCMCPRP it is 0.263; for RRIRSRPPRLPRPRPRPGRRPRP it is 0.263.
For RRIRMRPPRLPRPRPRPAGAPRP, the “shrunken log2 fold change” value stood at 1.28.
RRIRPRPPRLPRPRPRPEPWPRP: the “shrunken log2 fold change” value was 0.232.
As to RRIRMRPPRLPRPRPRPWYGPRP, the “shrunken log2 fold change” value is -0.0162.
In the case of RRIRQRPPRLPRPRPRPQVIPRP, the “shrunken log2 fold change” value was -0.0697.
In the case of RRIRFRPPRLPRPRPRPLVHPRP, the “shrunken log2 fold change” value was -0.298.
Under RRIRERPPRLPRPRPRPERRPRP stands -0.0345; under RRIRLRPPRLPRPRPRPLNYPRP, -0.501; under RRIRNRPPRLPRPRPRPRNYPRP, -0.123.
Consider RRIRNRPPRLPRPRPRPVWSPRP, for which the “shrunken log2 fold change” value stood at 0.0637.
For the sequence RRIRTRPPRLPRPRPRPWGKPRP, the “shrunken log2 fold change” value amounted to 0.201.
RRIRHRPPRLPRPRPRPNASPRP: the “shrunken log2 fold change” value was determined as 0.0449.
For the sequence RRIRQRPPRLPRPRPRPYRRPRP, the “shrunken log2 fold change” value was determined as 0.0231.
With RRIRLRPPRLPRPRPRPWSVPRP, the “shrunken log2 fold change” value is -0.0834.
In the case of RRIRERPPRLPRPRPRPPIRPRP, the “shrunken log2 fold change” value was -0.0192.
RRIRIRPPRLPRPRPRPFFIPRP: the “shrunken log2 fold change” value is -0.641.
The figure for RRIRVRPPRLPRPRPRPLSHPRP is -0.32; for RRIRWRPPRLPRPRPRPTQKPRP it is 0.482; for RRIRERPPRLPRPRPRPWGAPRP it is 0.165.
Regarding RRIRARPPRLPRPRPRPERLPRP, the “shrunken log2 fold change” value is 0.23.
Under RRIRTRPPRLPRPRPRPERMPRP stands 0.275.
In the case of RRIRTRPPRLPRPRPRPMHWPRP, the “shrunken log2 fold change” value stood at 0.209.
As to RRIRNRPPRLPRPRPRPAWRPRP, the “shrunken log2 fold change” value is 0.526.
Under RRIRHRPPRLPRPRPRPHCSPRP stands -0.124; under RRIRWRPPRLPRPRPRPKHVPRP, 0.254; under RRIRDRPPRLPRPRPRPSVGPRP, 0.217.
For RRIRIRPPRLPRPRPRPRHYPRP, the “shrunken log2 fold change” value is -0.177.
As for RRIRYRPPRLPRPRPRPELIPRP, the “shrunken log2 fold change” value is -0.363.
As for RRIRVRPPRLPRPRPRPAQCPRP, the “shrunken log2 fold change” value was -0.0313.
As to RRIRARPPRLPRPRPRPYYMPRP, the “shrunken log2 fold change” value was -0.687.
Under RRIRWRPPRLPRPRPRPQKNPRP stands 0.0916; under RRIRLRPPRLPRPRPRPRGIPRP, -0.0811; under RRIRVRPPRLPRPRPRPVPSPRP, -0.0143.
Turning to RRIRFRPPRLPRPRPRPIIWPRP, the “shrunken log2 fold change” value was -0.273.
Consider RRIRFRPPRLPRPRPRPPDCPRP, for which the “shrunken log2 fold change” value was found to be 0.191.
In the case of RRIRCRPPRLPRPRPRPRPCPRP, the “shrunken log2 fold change” value came to 0.339.
Take RRIRERPPRLPRPRPRPINWPRP: the “shrunken log2 fold change” value was -0.169.
On to RRIRMRPPRLPRPRPRPGNIPRP, for which the “shrunken log2 fold change” value is -0.115.
As to RRIRKRPPRLPRPRPRPCSYPRP, the “shrunken log2 fold change” value was -0.0348.
In the case of RRIRARPPRLPRPRPRPIAIPRP, the “shrunken log2 fold change” value was determined as 0.0259.
Regarding RRIRYRPPRLPRPRPRPGANPRP, the “shrunken log2 fold change” value is -0.0888.
As for RRIRKRPPRLPRPRPRPIFMPRP, the “shrunken log2 fold change” value was determined as 0.0293.
RRIRMRPPRLPRPRPRPPDTPRP: the “shrunken log2 fold change” value was found to be 1.84.
Regarding RRIRPRPPRLPRPRPRPRTFPRP, the “shrunken log2 fold change” value stood at 0.23.
For the sequence RRIRTRPPRLPRPRPRPIEFPRP, the “shrunken log2 fold change” value was 0.0274.
Take RRIRNRPPRLPRPRPRPTCWPRP: the “shrunken log2 fold change” value was determined as 0.696.
On to RRIRDRPPRLPRPRPRPMMSPRP, for which the “shrunken log2 fold change” value was -0.0107.
With RRIRGRPPRLPRPRPRPWPKPRP, the “shrunken log2 fold change” value was 0.199.
Take RRIRPRPPRLPRPRPRPTPEPRP: the “shrunken log2 fold change” value was found to be 0.277.
In the case of RRIRVRPPRLPRPRPRPCPFPRP, the “shrunken log2 fold change” value is -0.314.
On to RRIRIRPPRLPRPRPRPAARPRP, for which the “shrunken log2 fold change” value worked out at 0.278.
As for RRIRARPPRLPRPRPRPMQMPRP, the “shrunken log2 fold change” value stood at 0.626.
For RRIRARPPRLPRPRPRPRMQPRP, the “shrunken log2 fold change” value turned out to be 0.637.
On to RRIRRRPPRLPRPRPRPMVEPRP, for which the “shrunken log2 fold change” value was -0.257.
With RRIRGRPPRLPRPRPRPMLEPRP, the “shrunken log2 fold change” value came out at 0.778.
Under RRIRFRPPRLPRPRPRPWTPPRP stands -0.26; under RRIRPRPPRLPRPRPRPKHAPRP, 0.824.
For RRIRSRPPRLPRPRPRPFPEPRP, the “shrunken log2 fold change” value is -0.22.
In the case of RRIRYRPPRLPRPRPRPYHGPRP, the “shrunken log2 fold change” value is -0.139.
With RRIRKRPPRLPRPRPRPFYYPRP, the “shrunken log2 fold change” value is -0.587.
Under RRIRARPPRLPRPRPRPYGCPRP stands -0.55; under RRIRVRPPRLPRPRPRPVHAPRP, -0.189; under RRIRPRPPRLPRPRPRPNYAPRP, -0.0849.
Consider RRIRDRPPRLPRPRPRPILWPRP, for which the “shrunken log2 fold change” value was 0.00705.
As to RRIRTRPPRLPRPRPRPEFLPRP, the “shrunken log2 fold change” value is -0.536.
For RRIRARPPRLPRPRPRPRYKPRP, the “shrunken log2 fold change” value amounted to 0.0679.
Turning to RRIRCRPPRLPRPRPRPYVYPRP, the “shrunken log2 fold change” value is -0.834.
For the sequence RRIRCRPPRLPRPRPRPSGYPRP, the “shrunken log2 fold change” value was -0.724.
For RRIRRRPPRLPRPRPRPFYTPRP, the “shrunken log2 fold change” value was -0.327.
Regarding RRIRMRPPRLPRPRPRPGSLPRP, the “shrunken log2 fold change” value is 0.432.
As to RRIRWRPPRLPRPRPRPIKHPRP, the “shrunken log2 fold change” value was -0.2.
Take RRIRTRPPRLPRPRPRPIQDPRP: the “shrunken log2 fold change” value is -0.867.
Under RRIRYRPPRLPRPRPRPNCPPRP stands -0.272; under RRIRWRPPRLPRPRPRPLYKPRP, -0.849.
Regarding RRIRNRPPRLPRPRPRPDLQPRP, the “shrunken log2 fold change” value was -0.0156.
In the case of RRIRQRPPRLPRPRPRPMLRPRP, the “shrunken log2 fold change” value was -0.138.
For the sequence RRIRTRPPRLPRPRPRPCLMPRP, the “shrunken log2 fold change” value was -0.15.
Take RRIRIRPPRLPRPRPRPDCGPRP: the “shrunken log2 fold change” value stood at 0.0585.
On to RRIRYRPPRLPRPRPRPEPAPRP, for which the “shrunken log2 fold change” value amounted to 0.168.
As for RRIRCRPPRLPRPRPRPMNYPRP, the “shrunken log2 fold change” value is -0.226.
Regarding RRIRHRPPRLPRPRPRPCPQPRP, the “shrunken log2 fold change” value is -0.195.
With RRIRYRPPRLPRPRPRPFTCPRP, the “shrunken log2 fold change” value was -0.103.
With RRIRPRPPRLPRPRPRPNNPPRP, the “shrunken log2 fold change” value is -0.415.
Under RRIRFRPPRLPRPRPRPTFRPRP stands -0.0216; under RRIRHRPPRLPRPRPRPRQAPRP, 0.495.
For RRIRDRPPRLPRPRPRPWMNPRP, the “shrunken log2 fold change” value is -0.15.
Consider RRIRTRPPRLPRPRPRPSMRPRP, for which the “shrunken log2 fold change” value was -0.107.
For RRIRDRPPRLPRPRPRPCNEPRP, the “shrunken log2 fold change” value is -0.0633.
With RRIRHRPPRLPRPRPRPDDKPRP, the “shrunken log2 fold change” value was -0.359.
Turning to RRIRKRPPRLPRPRPRPASSPRP, the “shrunken log2 fold change” value came to 0.0469.
Under RRIRPRPPRLPRPRPRPYGTPRP stands -0.732; under RRIRWRPPRLPRPRPRPRMTPRP, 0.394.
The figure for RRIRKRPPRLPRPRPRPIHIPRP is -0.39; for RRIRNRPPRLPRPRPRPGSLPRP it is -0.0901.
The figure for RRIRSRPPRLPRPRPRPSVAPRP is 0.575.
